{"source": "the DeepSol protein solubility set"}
{"test": "soluble on expression in E. coli; label from the status in PepcDB or PDB records"}
{"sequence": "MAHHHHHHMSCITGITYLSSADINALSKGAGAGSSSGSRGTFVVREGDYVTGTITNVQGGSTPGIRLATSRGVTAFIAAVDICDEAMRVDLLEYIRRSEQLRDWNRHENGDARPPERAEAPVWLRRGALLQGTVSRCVWARCELHLQWCRPREELAGSGDDNGEKETAMPSYGNMERGGASSSVNSLNTAQVEQQVRVFATKMSRHPLFRDVSKNGAADMLRDKEIGESLLRPRTASVHRVVCEVKVGSNATNHWVISEERHANGQFYYKVEDRVVDRQWEFTDVDDFLCNFVEPMVKLIQSIRVHRRFEDSTEYVQAALDAQREVSGGFAYAFAETESKRHLYQVYSSGGNETYHFPLHITSEFIYIRLPFFHDGKASNKWVPCKSAEKVSETVKNYARAMSKRSVNGELH", "soluble on expression in E. coli": "soluble"}
{"sequence": "MLTSDPSESTAHLQRTISNLSARNAKLAELLKASRDKLSILQDQLEDLAAPPSTYGTFLEFSGGRETAEVFTAGRHMRLRISPDVEKAELVPGVQVRLGEASQVVEVCDISTTGQLATLVELLADNRGLICDHTGEERVVKLAAALTEGVDKLPKAGDTLLVDPRAGYAFEVIPKTEVSTLA", "soluble on expression in E. coli": "soluble"}
{"sequence": "MKQGTVKWFNAEKGFGFIEVEGENDVFVHFSAINQDGYKSLEEGQAVEFEVVEGDRGPQAANVVKL", "soluble on expression in E. coli": "not soluble"}
{"sequence": "MGSDKIHHHHHHAPRTPPATDAWSGFRQLFELDPHYAHFANFLITSHPRPVREAIASLRAQLDQHPARCVEWDTQSEWKHEAEVREWAGRYLEVKPRQIALTGSTTEGLGMIYGGLRLNPQQEILTTEHEHYSTRNILAYRSQRDGTQVRKLRLFDDPAKVSDDQVLSTIAAAIKPQTRVLGMTWVHSGSGVKLPVGQIGALVHEANRNRDENDRILYVIDGVHGFGVEDMRFADLQCDYFIAGTHKWMFGPRGTGIICAASTELKHLTPTFATFSENEDFATTMTPGGYHAFEHRWALGKAFELHLQHGKAAIQARIHGLNDYLKERLAQHRAIELVTPRSPNHSAGFTFFRVKGQDVEAIAAHLNSQRIVVDAVDRDVGPVVRTAPGLLNTEAEIDRLVDVLGQRLRA", "soluble on expression in E. coli": "not soluble"}
{"sequence": "MKHLIVVPPRMNLYIKKNLAINDIFREFVANEDLWPYSIDESILDLTHTWRLFGKTPRAVAQLIQHTIRHRLGLYTTVGIGDNPLQAKIALDVYAKHDPNLIGQISYLEHHHHHH", "soluble on expression in E. coli": "not soluble"}
{"sequence": "MTARARSALLDAEHIVGYTTYVELLPDEITEGADDIYNTPMCGEVSRTEEAIDRALAGNDVAIIGSGDPNVYALAGLALEIIESKGATATMLDFDVVPGVP", "soluble on expression in E. coli": "not soluble"}
{"sequence": "MLIAQEQEQSSISLLAEVSRAVNNEEDISKVLRLVLFILSEHMNMLRGMVTILNRTTGEMVINESFGLTDEQRQLARYKVGEGIIGQVVKTGRPSVVPRINEEPLFLDRTQSRAEENKEELCFICVPIKVGREVIGTLSADRRISVPAENGDKKLWRKSDRIDVLQYYVDLLSIIAAMIAQAVRIKQLDDEKS", "soluble on expression in E. coli": "not soluble"}
{"sequence": "MAEKFDCHYCRDPLQGKKYVQKDGHHCCLKCFDKFCANTCVECRKPIGADSKEVHYKNRFWHDTCFRCAKCLHPLANETFVAKDNKILCNKCTTREDSPKCKGCFKAIVAGDQNVEYKGTVWHKDCFTCSNCKQVIGTGSFFPKGEDFYCVTCHETKFAEHCVKCNKAITSGGITYQDQPWHADCFVCVTCSKKLAGQRFTAVEDQYYCVDCYKNFVAKKCAGCKNPITGFGKGSSVVAYEGQSWHDYCFHCKKCSVNLANKRFVFHQEQVYCPDCAKKL", "soluble on expression in E. coli": "soluble"}
{"sequence": "MSVAIDHDQTAKWDWPFQKGDGVVKVLDYEDHFEVGLEAHNFLPNEIDVKNIGEFLEIHMAHTTKDDKFGSITRSITRCYRLPKGTDPATIKSKLDGSGILHISGNKKK", "soluble on expression in E. coli": "not soluble"}
{"sequence": "MGSDKIHHHHHHMPVIKFSYGDSMSTPLDSDLLRTFLAVADTGNLTRAADTVRRTQSAVSMQIRKLEELIGSALFERHSRGVILTDDGRRLADNARRIVSLLDDTAAAMRSPALEGSVRIGISEEYVNSTLPKALGAFAAIHPGVEVTVRQETSMANSAALAAGELDIAVVFEPGGRSRNEVLMVNPTVWATCDQHGAHERRPVPIATYTYAEGGWCDELARRSLQSRGIESRIAYVSRTSGGLIAALISGLAIAPLSRTAIPAGCRELTEEDGFGIIDMTNVVLRTRRGNRSPTVDAMADAIRRAFRAPAEKEKEEVRSTTTDG", "soluble on expression in E. coli": "not soluble"}
{"sequence": "PFKEVSPNSFLLDDSHALSQLLKKSYRWYSPVFSPRNVPRFADVSSITESPETLKAIRDFLVQRYRAMSPAPTHILGFDARGFLFGPMIAVELEIPFVLMRKADKNAGLLIRSEPYEKEYKEAAPEVMTIRYGSIGKGSRVVLIDDVLATGGTALSGLQLVEASDAVVVEMVSILSIPFLKAAEKIHSTANSRYKDIKFISLLSDDALTEENCGDSKNYTGPRVLSCGDVLAEHPH", "soluble on expression in E. coli": "soluble"}
{"sequence": "SNAMLFDEKEILAITRWAKLYANQSPDRILLGSNDIPPEYRAAVATQIELWPRLRNKLPQWAGISSLYIPSRLSLEQSSGAVTSSYKSRFIREGTKVVDLTGGLGIDFIALMSKASQGIYIERNDETAVAARHNIPLLLNEGKDVNILTGDFKEYLPLIKTFHPDYIYVDPARRSGADKRVYAIADCEPDLIPLATELLPFCSSILAKLSPMIDLWDTLQSLLHVQELHVVAAHGEVKELLVRMSLNEATIPPEKVPIHAINLLLEDTVIPFIFTMEEERSISIPYTDSIDKYVYEPHTALLKAGAFKTVAYRLGLRKLHPNSHLYTSEAYESAFPGRTFVLEEIIPFSTSVLKQLRKVVPQASISCRNFPLSPIELRQRSKMADGGEKTLMGTTMADGKKVLLLLRKAE", "soluble on expression in E. coli": "soluble"}
{"sequence": "MAHHHHHHMPPLAQLCALALQYRCDLSQEIDQNIRSCFHSSRVPSISLWDYIRRFAKYSVCSEECFILAMVLMDRYVCKTQIPITLRNVHRLYITAMTLSVKLRDDSYYSNAYYASIGGVVNAELNVLELELLDIVQWFTWVEKSVYDAYVARLEALFGDAMPKLLVASPNK", "soluble on expression in E. coli": "not soluble"}
{"sequence": "SGIMNIILQDNVQEIEGVVVTGYQQIKNRVFTGAAASVKLDEIKLNGVSDVSRMLEGRIAGLSIQNVTGSFGAAPRINIRGGASIMGNVQPLWVIDGAVYEDLVSLTLDQLASGDAVTLISSAVAGLNASDIEDIQVLKDASATSIYGARALNGVIVITTRSGKRNA", "soluble on expression in E. coli": "not soluble"}
{"sequence": "MGSDKIHHHHHHMKLNFTGHTDPGLIRSNNQDDYYIDPEGRFFIVADGMGGHAGGEEASRIATREIKAYLTANWDVSKPSSELLEQALWQANEAILQDQQNHPERADMGTTAVVVIFRNDEQWCAHVGDSRLYRLRETQLEQVTEDHTWVARAIKIGDITAEEARVHPFRHVLSRCLGREDLHQVDVQPLDTKIGDRLLLCSDGLTEELPDQKIAHNLQINSLLDQSALSLVEDAKEQGGHDNITVVIVALE", "soluble on expression in E. coli": "not soluble"}
{"sequence": "MKFEILQQLNAERAARRPAIVVTDTATGAQRLVKAADIAADPLAAELGKQLRMGKSASIEIDGRKLFLNVYAPTAKLVIVGAVHISQALAPLARSLGYDVTVVDPRTAFASPERFPDVPLIAEWPDVALPPLNIDHYTAFVALTHDPKIDDPALLHAFARDCFYIGALGSKKTHAKRLERLKGQGASDADLGRIHAPIGLAIGAVSPSEIAVSIMAEITAALRLPASSKAAAA", "soluble on expression in E. coli": "not soluble"}
{"sequence": "MSLRRSLLLVDDDADHLAVLRCTLESCGFDVSLAPDGAAALALAHARAFDAVVLDIAMPGLSGWEVAERLRAAHGQSFRLVMLSANAEERHGPRGKEPDHDLFLMKPVELSALVDSLGKLLGLEWILSEGGGDTVLAQPRIDVSDSARTHVDRLKSLARIGHLRGLEAEIRSMQETDTGTAPLAARLFDCLDRCDLVAMRRVLEGIEGHHHHHH", "soluble on expression in E. coli": "not soluble"}
{"sequence": "MFSGIKGPNPSDLKGPELRILIVHARWNLQAIEPLVKGAVETMIEKHDVKLENIDIESVPGSWELPQGIRASIARNTYDAVIGIGVLIKGSTMHFEYISEAVVHGLMRVGLDSGVPVIFGLLTVLNEEQALYRAGLNGGHNHGNDWGSAAVEMGLKALY", "soluble on expression in E. coli": "soluble"}
{"sequence": "MPVKRSLKLDGLLEENSFDPSKITRKKSVITYSPTTGTCQMSLFASPTSSEEQKHRNGLSNEKRKKLNHPSLTESKESTTKDNDEFMMLLSKVEKLSEEIMEIMQNLSSIQALEGSRELENLIGISCASHFLKREMQKTKELMTKVNKQKLFEKSTGLPHKGQPQMSQPLLEHHHHHH", "soluble on expression in E. coli": "soluble"}
{"sequence": "MAPRSILITGANRGIGLGLVKQFLKNEGIQLVIATCRNPSKADELNSIADSRLQIFPLEIDCDDSIKKLYENVDTLVGTDGLTVLINNAAICSVYEIEGQISRTYMRQQIETNSVSTAILTQNFIPLLKKASAKNGGEEYSTDRAAIVNISSGAASIGYIDDKQPGIYIAYRMSKSALNSFSKSCSVELAKYHILVTAMCPGWVKTDMGGENGWEEVDDATEKIMKSILKLGAAQHGAFINSSLEVYPN", "soluble on expression in E. coli": "not soluble"}
{"sequence": "MIVSFMENYSDALNDIFQSLADPTRRAVILRLGGGEASIGTLAEPFAMALPSFMKHIRQLEEAGLIVTRKQGRVRFCSLEKQRFSMLDGWLSQQRAVWEGRTDRLEQFVMAQQDRMSSKGENDQ", "soluble on expression in E. coli": "not soluble"}
{"sequence": "MHIEFRHLRTIKAIHDCGGLARAADQLNITQSALSHQIKGLEDQAGVELFVRRSKPMKLSAAGMRLLRLAEQILPQVEAMQAEFSSLRDGRSGRMHIAIECHACFEWLFPVLEAFRKNWPDVDVDIRPGLAFDALPALQKEEVDLVVSSDPEEIAGVEFVELFDYNAVFVAASTHPLAAKPWVEAEDFRGETLITYPVERTRLDVFSQLLIPARVEPAQVRQVELTAVILLLVASNRGVSVLPDWVVREVKYSSDYVTRPLTETGITRRLYAAVRSEDLEKPFVQELVTLARSEARKLQSR", "soluble on expression in E. coli": "not soluble"}
{"sequence": "MSRRRKANPTKLSENAKKLAKEVENSQEENDCDMLAKPQTPTIIIPGHMDDTPNPAGSPHDASIKSSSSTISDHTSTSATTGISDFPDILAQTEHGCSVLIDGNHLREIINSVDTQDGKQDLLSDVIRQLTSIKERLTNDESPVKDDLKEDPDDMSPMLHAGNFDSEMLLRQHELMQHQQQQMIIANMLKATQSLPLLFNGGLNYEAILNNPVLNATIAGHLPNPLASNISLLQKSISAKLAAAGNMQTVEKVETPLNLSKDTPSPTAIPQSPLSGFRLPYSLGTNYGSDGQLFNNCSPNSSGKSTPGNTSVTSEVATPRPQAKSPNHIKRPMNAFMVWARDERRKILKAYPDMHNSNISKILGSRWKGMSNSEKQPYYEEQSRLSKLHMEQHPDYRYRPRPKRTCVIDGKKVRVNEYKTIMKTKKDLMWGDEPGFSQPSDLQMDLASHVNLLNDLTQHHHQSHLLQTAE", "soluble on expression in E. coli": "not soluble"}
{"sequence": "MAAAGQEKGYLTQTAAALDKSPSLSPQLAAPIRGRPKKCLVYPHAPKSSRLSRSVLRWLQGLDLSFFPRDINRDFSNGFLIAEIFCIYYPWELELSSFENGTSLKVKLDNWAQLEKFLARKKFKLPKELIHGTIHCKAGVPEILIEEVYTLLTHREIKSIQDDFVNFTDYSYQMRLPLVSRSTVSKSIKDNIRLSELLSNPNMLTNELKAEFLILLHMLQRKLGRKLNPEWFDVKPTVGEVTLNHLPAQASGRRYNLKVKRGRVVPVLPNIGSGGSSHREIHVKQAGQHSYYSAMKPIRNMDKKP", "soluble on expression in E. coli": "soluble"}
{"sequence": "MNQWDQFLTPYKQAVDELKVKLKGMRKQYEVGEQASPIEFVTGRVKPIASIIDKANKRQIPFDRLREEMYDIAGLRMMCQFVEDIDVVVNILRQRKDFKVIEERDYIRNTKESGYRSYHVIIEYPIETLQGQKFILAEIQIRTLAMNFWATIEHTLRYKYDGAYPDEIQHRLERAAEAAYLLDEEMSEIKDEIQEAQKYYTQKRSKKHEND", "soluble on expression in E. coli": "not soluble"}
